Drawing on patent EP2411513B1, this text covers Lysis of J774A.1 cells (% of AC-) for one substance.

The test deals with CD11b/CD18 receptor on J774A.1 murine monocytes/macrophages (murine) (UniProt P05555). Put plainly: cell-based or functional assay.

“CyaA/233OVA/K860R/AC- (from UniProt J7QLC0 1-1706)”: the Lysis of J774A.1 cells (% of AC-) is 72 % of AC-.
